Experimental data: CN107417788A (INST PASTEUR SHANGHAI CAS, dated 2017)

Target: T1, 生物素化Zaire GP蛋白 (pIRES-Zaire GP-BirA-FLAG SP-) (Ebola virus (EBOV) subtype Zaire, UniProt Q05320 33-676)
T1 construct: range 33-676; also called Zaire-GP-Biotin; Zaire-GP-BirA细胞裂解液
T1 sequence: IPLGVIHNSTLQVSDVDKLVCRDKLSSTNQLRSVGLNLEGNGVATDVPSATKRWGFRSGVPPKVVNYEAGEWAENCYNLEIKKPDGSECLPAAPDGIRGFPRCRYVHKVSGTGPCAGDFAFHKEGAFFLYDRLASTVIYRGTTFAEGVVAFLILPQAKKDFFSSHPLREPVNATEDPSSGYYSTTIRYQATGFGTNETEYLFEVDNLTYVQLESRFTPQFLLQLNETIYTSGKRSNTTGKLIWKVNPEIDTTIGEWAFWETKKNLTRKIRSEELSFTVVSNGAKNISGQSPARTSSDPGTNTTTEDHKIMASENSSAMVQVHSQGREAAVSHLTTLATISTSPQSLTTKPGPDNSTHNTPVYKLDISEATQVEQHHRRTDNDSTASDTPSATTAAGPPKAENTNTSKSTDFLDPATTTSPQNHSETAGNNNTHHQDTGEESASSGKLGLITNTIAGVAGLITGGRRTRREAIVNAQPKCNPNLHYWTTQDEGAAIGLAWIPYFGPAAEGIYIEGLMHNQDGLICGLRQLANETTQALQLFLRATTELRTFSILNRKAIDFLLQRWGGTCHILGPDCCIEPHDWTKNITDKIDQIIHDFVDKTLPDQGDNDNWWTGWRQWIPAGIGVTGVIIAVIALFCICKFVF
Experiment: indirect ELISA, […] (1:300) […]

B1: S37-3 (antibody, V domains shown)
VH: EVQLQQSGPELVKPGASVKISCKASGYSFTGYFMNWVKQSHGKSLEWIGRINPYNGDTFYNQKFKGKATLTVDKSSSTAHMELLSLTSEDSAVYYCGRGLRAFLDYWGQGTTLTVSS
VL: DIVLTQSPATLSVTPGDRVSLSCRASQSISNYLHWYQQKSHESPRLLIKYASQSISGIPSRFSGSGSGTDFTLSINSVETEDFGMYFCQQSNSWPHTFGGGTKLEIK
notes: also called 单克隆抗体S37-3; S37-3上清
binding result: binds
